Laboratory results: patent US20060233785A1, “Immunointeractive molecules and uses thereof” (priority 2001, published 2006)
Where a chain is given by its changes, count along the chain named.

B1: Recombinant Hev b 6 (rHev b 6) (protein, not shown: small tags and cut ends)
chain: EQCGRQAGGKLCPNNLCCSQWGWCGSTDEYCSPDHNCQSNCKDSGEGVGGGSASNVLATYHLYNSQDHGWDLNAASAYCSTWDANKPYSWRSKYGWTAFCGPVGAHGQSSCGKCLSVTNTGTGAKTTVRIVDQCSNGGLDLDVNVFRQLDTDGKGYERGHITVNYQFVDCGDSFNPLFSVMKSSVIN
B2: mutant rHev b 6 (cysteine to alanine substitution at amino acid 3) (protein, not shown: small tags and cut ends)
chain: B1 chain with C3A
B3: rHev b 5: recombinant latex allergen Hev b 5 (protein)
chain: ASVEVESAATALPKNETPEVTKAEETKTEEPAAPPASEQETADATPEKEEPTAAPAEPEAPAPETEKAEEVEKIEKTEEPAPEADQTTPEEKPAEPEPVAEEEPKHETKETETEAPAAPAEGEKPAEEEKPITEAAETATTEVPVEKTEE

Experiments:
[1] = Chen Z et al., 1997; cited from earlier work
basophils = experiment: Basophil Activation Test; format: cell-based, human; details: non-latex allergic control subject N2
Experimental: FIG. 9 is a graphical representation of the basophil Activation Test on a latex allergic donor. Whole blood from a latex allergic, Hev b 6 sensitized subject was incubated with latex allergens. The cells were stained with FITC labelled anti-human IgE polyclonal antibodies and a PE labelled monoclonal anti-human CD63 antibody. Cells were analysed by flow cytometry defining basophils on the basis of scatter (A) and high IgE staining (B). The percentage of activated basophils expressing CD63 was determined (C).
The Basophil Activation Test was performed on whole blood from (A) non-latex allergic subject N2; (B) latex-allergic subject A7; (C) latex-allergic subject A8 and (D) latex-allergic subject A10. Antigens: latex glove extract (GE), hevein peptide (hevein), rHev b 6, mutant rHev b 6 (MU rHev b 6), sulphonated rHev b 6, (sul. rHev b 6), rHev b 5, KLH and house dust mite extract (HDM). All allergens were used at 10 μg/ml except for rHev b 6 and mutant rHev b 6 which were used at 0.1, 1 and 10 μg/ml. The cut-off for positive was set at the level of activated basophils after incubation in stimulation buffer alone (no antigen, horizontal line). A plus symbol (+) indicates antigen to which a subject has either a positive clinical history of allergy and/or a positive reading on an allergen-specific IgE ELISA.
A basophil activation assay based on flow cytometry was used to quantify the activation of basophils after incubation with various allergens. This assay was modified from Paris-Kohler A, Demoly P, Persi L, Lebel B, Bousquet J, Arnoux B. In vitro diagnosis of cypress pollen allergy by using cytofluorimetric analysis of basophils (Basotest). J Allergy Clin Immunol 2000; 105:339-45. Whole blood was collected in 6 ml heparinised vacutainers (Greiner). 100 μl aliquots were preincubated with stimulation buffer (20 mM Hepes, 133 mM NaCl, 5 mM KCl, 7 mM CaCl2, 3.5 mM MgCl2, 1 mg/ml BSA, 20 μl/ml heparin, pH 7.4) containing 2 ng/ml IL-3, for 10 min at 37° C., to increase the sensitivity of the assay. Samples were incubated for 20 min at 37° C. with 100 μl of stimulation buffer alone or stimulation buffer containing either rabbit anti-human IgE (Dako) at 1 in 500 dilution, 2 μM N-fMLP (Sigma, Mo, USA), crude allergen extracts, recombinant latex allergens or Keyhole Limpet Haemocyanin (KLH) (Sigma, Mo, USA). Basophil activation was stopped by incubating at 4° C. for 5 min. Normal goat serum (10 μl) was added to each tube to block non-specific binding of the detection antibody (goat anti-human IgE-FITC) and incubated for 10 min at 4° C. Samples were incubated with goat anti-human IgE-FITC (Caltag, Birmingham, Calif.) at a dilution of 1 in 2.5, and mouse anti-human CD63-R-Phycoerythrin (PE; Caltag, Birmingham, Calif.) at a dilution of 1 in 20, in a 20 μl volume of wash buffer (20 mM HEPES, 133 mM NaCl, 5 mM KCl, 0.27 mM EDTA, pH7.3). RBC were lysed by the addition of 2 ml FACS lysing solution (39 mM NH4Cl, 2.5 mM KHCO3, 0.2 mM EDTA) and incubation for 10 min at room temperature. Cells were centrifuged (250 g, 5 min at 4° C.), resuspended in 3 ml wash buffer, and centrifuged as before. Pellets were resuspended in 200 μl wash buffer, and analysed by flow cytometry (FACScalibur, Becton Dickinson) within 2 h of the experiment. 7AAD (Sigma, Mo, USA) was added to the samples 5 min prior to FACS analysis.

[2] = target: IgE from the sera of latex allergic, Hev b 6 sensitised subjects; experiment: inhibition ELISA of IgE binding to plate-coated rHev b 6, estimated
[3] = target: serum IgE of latex-allergic subject A8; experiment: inhibition ELISA of IgE binding to plate-coated rHev b 6, inhibitor at 125 µg/ml (FIG. 8D)
[4] = target: serum IgE of latex-allergic subject A7; experiment: inhibition ELISA of IgE binding to plate-coated rHev b 6, soluble inhibitor 0.0016-125 µg/ml (FIG. 8B)
[5] = target: serum IgE of latex-allergic subject A6; experiment: inhibition ELISA of IgE binding to plate-coated rHev b 6, soluble inhibitor 0.0016-125 µg/ml (FIG. 8C)
[6] = target: serum IgE of a latex-allergic, Hev b 5 positive subject; experiment: non-specific inhibition ELISA: serum preincubated with inhibitor, IgE binding to rHev b 5 read (data not shown)
[7] = target: IgE from the sera of latex allergic, Hev b 6 sensitised subjects; experiment: inhibition ELISA of IgE binding to plate-coated rHev b 6, ratio of the 30% inhibition concentrations

| Molecule | basophil activation (basophils) | inhibitor concentration giving 30% inhibition of IgE binding [2] [µg/mL] | percent inhibition (non-specific control) [6] [%] | other results |
| --- | --- | --- | --- | --- |
| Hevein: 4.7 kDa hydrophilic protein which forms the N-terminus of pro-hevein (EQCGRQAGGKLCPNNLCCSQWGWCGSTDEYCSPDHNCQSNCKD) |  |  |  | patients with latex allergy reacting on skin testing [1]: 81% |
| hevein peptide: 43-mer hevein peptide synthesised according to the prohevein amino acid sequence by Mimotopes (EQCGRQAGGKLCPNNLCCSQWGWCGSTDEYCSPDHNCQSNCKD) | negligible |  |  |  |
| B1 |  | 0.01 | < 20 | percent inhibition [3]: 100%; percent inhibition [4]: 100%; percent inhibition [5]: 100% |
| B2 |  | 125 | < 20 | maximum percent inhibition [3]: 32%; fold more inhibitor required than rHev b 6 [7]: 12500 fold |
| B3 | negligible |  |  |  |
